The assay has as its target CCR5 (UniProt P51681). Description: cell-based or functional assay.
Chain of UniProt P51681 (P51681 whole entry, the tested form may be a part): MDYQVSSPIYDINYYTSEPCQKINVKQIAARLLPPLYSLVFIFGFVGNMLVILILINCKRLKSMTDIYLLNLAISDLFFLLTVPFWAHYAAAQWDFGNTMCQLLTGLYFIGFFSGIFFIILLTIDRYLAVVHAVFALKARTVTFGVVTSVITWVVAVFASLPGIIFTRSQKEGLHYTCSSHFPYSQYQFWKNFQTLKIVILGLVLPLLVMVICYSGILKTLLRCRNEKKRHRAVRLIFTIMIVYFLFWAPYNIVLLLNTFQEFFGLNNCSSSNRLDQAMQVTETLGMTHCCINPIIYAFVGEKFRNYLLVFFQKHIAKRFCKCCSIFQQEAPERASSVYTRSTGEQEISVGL
Substance “n-nonanoyl-RANTES (2-68), CH3-(CH2)7-C(O)-RANTES (2-68) (from UniProt P13501 25-91) (ligand)” yielded an Average infectivity IC50 (cell-free viral infection assay) of 0.024 nM; a Cell-fusion result for comparison (IC50) of 0.097 nM; an EC50, HeLa P4-CCR5/HeLa-Env-ADA cell fusion of 0.323 nM.
Substance “NNY-P-Y3tbuA-RANTES (4-68) (from UniProt P13501 25-91) (ligand)” registered an Average infectivity IC50 (cell-free viral infection assay) of 0.014 nM, a Cell-fusion result for comparison (IC50) of 0.038 nM, a Mean Relative Potency (IC50 of cell fusion inhibition relative to AOP-RANTES = 100) (relative to AOP-RANTES = 100) of 7 and a percentage fusion inhibition at the lowest dilution of over 50%.
Consider “NNY-P2Thz-Y3Chg-RANTES (4-68) (from UniProt P13501 25-91) (ligand)”, for which the Mean Relative Potency (IC50 of cell fusion inhibition relative to AOP-RANTES = 100) (relative to AOP-RANTES = 100) worked out at 2 and the percentage fusion inhibition at the lowest dilution was over 50%.
With “NNY-P-Y3Chg-RANTES (4-68) (from UniProt P13501 25-91) (ligand)”, the Average infectivity IC50 (cell-free viral infection assay) was found to be 0.012 nM, the Cell-fusion result for comparison (IC50) is 0.026 nM, the Mean Relative Potency (IC50 of cell fusion inhibition relative to AOP-RANTES = 100) (relative to AOP-RANTES = 100) is 7 and the percentage fusion inhibition at the lowest dilution is over 50%.
Substance “AOP-RANTES-K(palmitoyl)-G (from UniProt P13501 25-91) (ligand)” gave a Mean Relative Potency (IC50 of cell fusion inhibition relative to AOP-RANTES = 100) (relative to AOP-RANTES = 100) of 45.
Consider “NNY-P2Thz-Y3tButA-RANTES (4-68) (from UniProt P13501 25-91) (ligand)”, for which the Mean Relative Potency (IC50 of cell fusion inhibition relative to AOP-RANTES = 100) (relative to AOP-RANTES = 100) is 4 and the percentage fusion inhibition at the lowest dilution is over 50%.
As to “aminooxypentane-RANTES (2-68), CH3-(CH2)4-O-N=CH-CO-RANTES (2-68) (from UniProt P13501 25-91) (ligand)”, the Average infectivity IC50 (cell-free viral infection assay) is 0.145 nM; the Cell-fusion result for comparison (IC50) is 0.48 nM; the EC50, HeLa P4-CCR5/HeLa-Env-ADA cell fusion came to 1.81 nM; the Mean Relative Potency (IC50 of cell fusion inhibition relative to AOP-RANTES = 100) (relative to AOP-RANTES = 100) was found to be 100.

The values are drawn from patent US20050089970A1.
